Test system: Bacillus subtilis
Experiment: cleaved RNA product abundance (RNA/gDNA barcode ratio) relative to median wild-type variant (ratio to wild type); higher = more accumulation of the downstream cleavage product
Settings: cleavage site: cggR-gapA (positions -7 to +36 mutated)
In short: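 Reporter mRNAs based on truncated aprE or tetM carried barcoded, mutagenized RNase Y cleavage-site windows built from oligos with a 9% error rate and were integrated into the B. subtilis chromosome. Cultures grew in LB at 37°C from OD600 0.0003 to 0.3. Cleaved RNA was gel-selected, reverse transcribed and barcode-sequenced together with genomic DNA barcodes, and UMIs were collapsed. Cleaved product abundance is the per-construct ratio of RNA to gDNA barcodes, scaled to the median of constructs carrying the unmutated site.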

[1] = experiment (reporter, strain, medium): exp 4a: truncated aprE reporter, strain BJT201 with 2% xylose (RNase J1 expressed)
[2] = experiment (reporter, strain, medium): exp 2b: truncated aprE reporter, strain BJT200

ACAGACGAAGGAGCCGCATAGAAGTTATTAAAGGATGAATAATCCCTCAATATAAATATCTCTCACTTATTTAAA
cleaved RNA product abundance [1]: 0.199

ACAGACGAAGGAGCCGCATAGAAGTTATTAACGGATGAATAATCCCTCAATATAAATATCTCTCACTTATTTAAA
cleaved RNA product abundance [1]: 0.193

ACAGACGAAGGAGCCGCATAGAAGTTATTAAGAGATGAATAATCCCTCAATATAAATATCTCTCACTTATTTAAA
cleaved RNA product abundance [1]: 0.154

ACAGACGAAGGAGCCGCATAGAAGTTATTAAGCGATGAATAATCCCTCAATATAAATATCTCTCACTTATTTAAA
cleaved RNA product abundance [1]: 0.122

ACAGACGAAGGAGCCGCATAGAAGTTATTAAGGAATGAATAATCCCTCAATATAAATATCTCTCACTTATTTAAA
cleaved RNA product abundance [2]: 0.082 | cleaved RNA product abundance [1]: 0.135

ACAGACGAAGGAGCCGCATAGAAGTTATTAAGGAATGAATAATTCCTCAATATAAATATCTCTCACTTATTTAAA
cleaved RNA product abundance [1]: 0.893

ACAGACGAAGGAGCCGCATAGAAGTTATTAAGGAATGAATATTCCCTCAATATAAATATCTCTCACTTATTTAAA
cleaved RNA product abundance [1]: 0.263

ACAGACGAAGGAGCCGCATAGAAGTTATTAAGGCATGAATAAGCCCTCAATATAAATATCTCTCACTTATTTAAA
cleaved RNA product abundance [1]: 0.143

ACAGACGAAGGAGCCGCATAGAAGTTATTAAGGCATGAATAATCCCTCAATATAAATATCTCTCACTTATTTAAA
cleaved RNA product abundance [2]: 0.0988 | cleaved RNA product abundance [1]: 0.13

ACAGACGAAGGAGCCGCATAGAAGTTATTAAGGGAAGAATAATCCCTCAATATAAATATCTCTCACTTATTTAAA
cleaved RNA product abundance [1]: 0.6

ACAGACGAAGGAGCCGCATAGAAGTTATTAAGGGATAAATAATCCCTCAATATAAATATCTCTCACTTATTTAAA
cleaved RNA product abundance [2]: 1.03 | cleaved RNA product abundance [1]: 0.861

ACAGACGAAGGAGCCGCATAGAAGTTATTAAGGGATCAATAATCCCTCAATATAAATATCTCTCACTTATTTAAA
cleaved RNA product abundance [1]: 1.04

ACAGACGAAGGAGCCGCATAGAAGTTATTAAGGGATGAAGAATCCCTCAATATAAATATCTCTCACTTATTTAAA
cleaved RNA product abundance [1]: 0.861

ACAGACGAAGGAGCCGCATAGAAGTTATTAAGGGATGAATAAACCCTCAATATAAATATCTCTCACTTATTTAAA
cleaved RNA product abundance [2]: 0.448 | cleaved RNA product abundance [1]: 0.471

ACAGACGAAGGAGCCGCATAGAAGTTATTAAGGGATGAATAACCCCTCAATATAAATATCTCTCACTTATTTAAA
cleaved RNA product abundance [2]: 0.457

ACAGACGAAGGAGCCGCATAGAAGTTATTAAGGGATGAATAAGCCCTCAATATAAATATCTCTCACTTATTTAAA
cleaved RNA product abundance [1]: 0.32

ACAGACGAAGGAGCCGCATAGAAGTTATTAAGGGATGAATAATACCTCAATATAAATATCTCTCACTTATTTAAA
cleaved RNA product abundance [2]: 0.115 | cleaved RNA product abundance [1]: 0.179

ACAGACGAAGGAGCCGCATAGAAGTTATTAAGGGATGAATAATCACTCAATATAAATATCTCTCACTTATTTAAA
cleaved RNA product abundance [2]: 0.134 | cleaved RNA product abundance [1]: 0.166

ACAGACGAAGGAGCCGCATAGAAGTTATTAAGGGATGAATAATCCATCAATATAAATATCTCTCACTTATTTAAA
cleaved RNA product abundance [2]: 0.112 | cleaved RNA product abundance [1]: 0.245

ACAGACGAAGGAGCCGCATAGAAGTTATTAAGGGATGAATAATCCCACAATATAAATATCTCTCACTTATTTAAA
cleaved RNA product abundance [1]: 0.292

ACAGACGAAGGAGCCGCATAGAAGTTATTAAGGGATGAATAATCCCCCAATATAAATATCTCTCACTTATTTAAA
cleaved RNA product abundance [2]: 0.247 | cleaved RNA product abundance [1]: 0.319

ACAGACGAAGGAGCCGCATAGAAGTTATTAAGGGATGAATAATCCCTAAATATAAATATCTCTCACTTATTTAAA
cleaved RNA product abundance [1]: 0.658

ACAGACGAAGGAGCCGCATAGAAGTTATTAAGGGATGAATAATCCCTCAACATAAATATCTCTCACTTATTTAAA
cleaved RNA product abundance [1]: 0.317

ACAGACGAAGGAGCCGCATAGAAGTTATTAAGGGATGAATAATCCCTCAATAGAAATATCTCTCACTTATTTAAA
cleaved RNA product abundance [1]: 0.149

ACAGACGAAGGAGCCGCATAGAAGTTATTAAGGGATGAATAATCCCTCAATATAAACATCTCTCACTTATTTAAA
cleaved RNA product abundance [1]: 1

ACAGACGAAGGAGCCGCATAGAAGTTATTAAGGGATGAATAATCCCTCAATATAAATATCTCTCACTTATTTAAA
cleaved RNA product abundance [2]: 1 | cleaved RNA product abundance [1]: 1.01 | cleaved RNA product abundance (experiment (reporter, strain, medium): exp 6: tetM reporter, strain 168): 1.06

From the supplement of paper PMC11780869
